T1: DLL3 endogenously expressed on SHP77 cells (human, UniProt Q9NYJ7 27-618)
T1 construct: whole, on cells; also called human DLL3 on SHP-77
T1 sequence (looked up): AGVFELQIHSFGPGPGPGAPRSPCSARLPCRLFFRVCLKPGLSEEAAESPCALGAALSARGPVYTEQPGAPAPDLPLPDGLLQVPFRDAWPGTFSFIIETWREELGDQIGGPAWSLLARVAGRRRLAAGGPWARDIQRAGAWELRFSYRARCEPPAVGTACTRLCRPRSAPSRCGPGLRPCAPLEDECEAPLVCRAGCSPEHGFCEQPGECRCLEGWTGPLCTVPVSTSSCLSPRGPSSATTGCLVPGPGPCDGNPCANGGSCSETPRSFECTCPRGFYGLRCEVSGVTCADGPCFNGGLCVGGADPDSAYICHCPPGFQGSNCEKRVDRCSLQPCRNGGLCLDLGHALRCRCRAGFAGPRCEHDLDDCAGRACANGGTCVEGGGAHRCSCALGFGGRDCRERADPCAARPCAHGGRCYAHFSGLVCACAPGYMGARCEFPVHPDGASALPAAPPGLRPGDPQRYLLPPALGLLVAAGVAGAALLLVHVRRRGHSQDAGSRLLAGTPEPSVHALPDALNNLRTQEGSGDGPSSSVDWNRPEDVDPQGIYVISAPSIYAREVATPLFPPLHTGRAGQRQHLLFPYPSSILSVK

B1: DLL3-scFv-1 (scFv)
scFv: DIVMTQSQKFMSTSVGDRVSITCKASQNVGTAVAWYQQKPGQSPKLLIFSASIRYTGVPDRFTGSGSGTDFTLTISNMQSEDLADYFCQQYSSSPYTFGGGTKLEIKGGGGSGGGGSGGGGSEVQLQQSGPVLVKPGASVKMSCKASGYTFTDYYMNWVKRSHGKSLEWIGIINPYNGGTSYNQKFRGKATLTVDKSSNTAYMELNSLTSEDSAVYYCSRYDYDYDVEGAMDYWGQGTSVTVSS
notes: Murine anti-DLL3 clone; also called DLL3 chimeric antibody DLL3-scFv-1
B2: DLL3-scFv-2 (scFv)
scFv: DIVMTQSPATLSVTPGDRVSLSCRASQTISDYLHWYQQRSHESPRLLIKYASQSISGIPSRFSGSGSGSDFTLSINSVEPEDVGVYYCQNGHSFPLTFGAGTKLELKGGGGSGGGGSGGGGSEVQLQQSGTVLARPGASVKMSCKTSGYTFTSYWMHWVKQSPGQGLEWIGTIYPGNSDTRYNQKFKDKAYVTAVTSASTAYMELSSLTNEESAVYYCTRSYDYGDLDYWGQGTTLTVSS
notes: Murine anti-DLL3 clone; also called DLL3 chimeric antibody DLL3-scFv-2
B3: DLL3-scFv-3 (scFv)
scFv: DIVLTQSPASLAVSLGQRATISCRASKSVSTSGFSYMHWYQQKPGQPPKLLIYLASNLESGVPARFSGSGSGTDFTLNIHPVEEEDAATYYCQHSRELPFTFGSGTKLEIKGGGGSGGGGSGGGGSQVQLQQSGAELVKPGASVRISCKASGYAFSNYWINWVKQRPGKGLEWIGQINPGDGDTIYNGKFKGKATLTADKSSSTAYMQLSSLTSEDSAVYFCEREGRNYGDFAYWGQGTTLTVSS
notes: Murine anti-DLL3 clone; also called DLL3 chimeric antibody DLL3-scFv-3

target: T1, DLL3 endogenously expressed on SHP77 …; assay: flow cytometry (FACS) on SHP77 cells

Binding result, binds:
B1
B2
B3

Reference: patent publication EP4796562A1 (Shanghai Simnova Biotechnology Co., Ltd., dated 2026)
